# Assay results taken from US20020115613A1, “Treatment of prostate cancer” (priority 2001, published 2002).
# Columns and labels:
# prostate cancer cells = settings: cited from earlier work
# LNCaP cells = settings: cited from earlier work
# PC3Neo cells = test: Western blotting of death receptors, caspases, Bid, NFκB, XIAP; format: cell-based
# Description: (§1) Prostate cancer cell lines, PC3Neo and PC3AR were provided by Dr. K. Burnstein, University of Miami School of Medicine, Miami, Fla. PC3AR cells are a clonal cell line derived by stable transfection of PC3 with a full-length human AR cDNA (Dai, J. L., et al., Steroids, 61, 531-539, 1996). PC3Neo cells were stably transfected with neomycin vector alone. Cells were grown in RPMI 1640 with 5% FBS (Hyclone, Logan, Utah), 100 units/ml penicillin, 100 μg/ml streptomycin, 0.25 μg/ml fungizone and G418 (350 μg/ml) to select for neomycin-resistant cells. In experiments using antiandrogens, cells were maintained in 5% DCC stripped serum for at least 48 hr before treatment with hydroxyflutamide (Sigma Chemical Co., St. Louis, Mo.). The medium and all the drugs were replaced every two days. Cells were treated with 200 ng/ml, 400 ng/ml or 600 ng/ml of TRAIL (Biomol Research Laboratories, Inc, Plymouth Meeting, Pa.) for 2, 4, 6, 8, 16 and 20 hr. Cells were treated with 5 μM hydroxyflutamide for 5 days before the commencement of treatment with 400 ng/ml TRAIL.
# (§2) Cells were harvested by trypsinization, washed in 1×PBS and cell pellets resuspended in lysis buffer (100 mM Tris-HCl pH 8.0, 0.1% Triton X 100 and protease inhibitor cocktail from Roche Diagnostic Corporation, Indianapolis, Ind.). Cells were incubated over ice for 30 min and centrifuged at 10,000 g at 4° C. for 10 min. The supernatant was collected and the protein concentration estimated using Bio-Rad protein reagent (Bio-Rad Laboratories, Hercules, Calif.).
# (§3) Proteins (50 μg, unless stated otherwise) were separated on NuPAGE 10% Bis-Tris gels (Novex pre-cast mini gels, InVitrogen, Carlsbad, Calif.) at 100 volts for 1 hour in the presence of 1×MES-SDS running buffer (InVitrogen, Carlsbad, Calif.). Separated proteins were transferred to (PVDF) membranes (Bio-Rad Laboratories, Hercules, Calif.) at 42 volts for 2.5 hr using a Novex XCell II blotting apparatus in MES transfer buffer in the presence of NuPAGE antioxidant. Transfer of the proteins to the polyvinylidene difluoride (PVDF) membrane was confirmed by staining with Ponceau S (Sigma, St. Louis, Mo.). The blots were blocked in 5% non-fat dry milk in TBS, washed twice for 10 min each with TBS containing 0.1% Tween-20 and incubated for 2 hr at RT with primary antibody diluted in TBS containing 0.5% milk.
# (§4) The following antibodies were used in the immunoblots: DR4, DR5 and cytochrome c (Imgenex, San Diego, Calif.), BID (BioSource International, Camarillo, Calif.), caspases-8, -9, and Akt (Cell Signaling Technology, Beverely, Mass.), caspase-3 (BD Pharmingen, San Diego, Calif.) Iκβ and XIAP (Cell Signaling Technology, Beverly, Mass.), cFLIP (StressGen Biotechnology Corp, Victoria, Canada), actin (Sigma Chemical Co., St. Louis, Mo.) and Cox II (Molecular Probes, Eugene, Oreg.). Immunoreactive bands were visualized using ECL detection system (Amersham, Pharmacia Biotech, Arlington Heights, Ill.) and signals were developed after exposure to X-ray film (X-Omat films, Eastman Kodak Company, Rochester, N.Y.).
# (§5) For separation of mitochondrial and cytosolic fractions, cells were trypsinized, centrifuged at 600 g for 10 min at 4° C., washed twice in ice-cold PBS and re-suspended in buffer A (20 mM HEPES-KOH, pH 7.2, 10 mM KCl, 1.5 mM MgC12, 1 mM sodium-EDTA, 1 mM sodium-EGTA, 250 mM sucrose and protease inhibitor cocktail). Cells were homogenized on ice with a glass Dounce homogenizer (30 strokes) and were centrifuged at 750 g for 5 min at 4° C. The supernatant was centrifuged for 15 min at 10,000 g at 4° C. to pellet mitochondria, which was washed and resuspended in lysis buffer. The supernatant was centrifuged at 100,000 g for 60 min at 4° C. and S-100 cytosol was collected. […]
# PC3AR cells = test: as above; format: cell-based
# Description: as §1, §2, §3, §4, §5
# LNCaP C4-2 cells = test: Western blotting of death receptors, caspases, Bid, cytochrome c, Akt; format: cell-based; settings: 15 min, FIG. 8
# [1] = 400 ng/ml TRAIL, by 2 hr, FIG. 2C
molecule,measurement,setting,value
CC#C[C@]1(O)CC[C@H]2[C@@H]3CCC4=CC(=O)CCC4=C3[C@@H](c3ccc(N(C)C)cc3)C[C@@]21C [Mifepristone],"ability to induce apoptosis in prostate cancer cells (Sridhar et al., 2001)",prostate cancer cells,marginal ability to induce apoptosis
same,"induction of tBid (Sridhar et al., 2001)",LNCaP cells,weakly induced
"Tumor necrosis factor α—Related Apoptosis Inducing Ligand (protein, UniProt P50591 1-281, looked up, 281 amino acid type II transmembrane protein of the tumor necrosis factor α family; purchased from Biomol) Tumor necrosis factor ligand …: MAMMEVQGGPSLGQTCVLIVIFTVLLQSLCVAVTYVYFTNELKQMQDKYSKSGIACFLKEDDSYWDPNDEESMNSPCWQVKWQLRQLVRKMILRTSEETISTVQEKQQNISPLVRERGPQRVAAHITGTRGRSNTLSSPNSKNEKALGRKINSWESSRSGHSFLSNLHLRNGELVIHEKGFYYIYSQTYFRFQEEIKENTKNDKQMVQYIYKYTSYPDPILLMKSARNSCWSKDAEYGLYSIYQGGIFELKENDRIFVSVTNEHLIDMDHEASFFGAFLVG",activated caspase-9,PC3Neo cells,not detected
same,increase in expression of DR5,PC3Neo cells; [1],~2 fold
same,DcR2 expression,PC3Neo cells; TRAIL treatment,did not significantly alter DcR2 expression
same,DR4 levels,PC3Neo cells; TRAIL-treated,did not show significant changes
same,tBid expression,"PC3Neo cells; by 4 hr of TRAIL treatment, not shown",little tBid was present
same,tBid in mitochondria,"PC3Neo cells; mitochondrial fraction, highest level by 2 hr, not shown",significantly lower than that seen in PC3AR cells
same,XIAP levels,PC3Neo cells; not shown,did not alter XIAP levels significantly
same,cleaved caspase-3 (p17),PC3Neo cells; not shown,present in both cell lines as early as 2 hr
same,expression of NFκB,PC3Neo cells; not shown,increased the expression of NFκB levels
same,mature p12 caspase-3 product,PC3Neo cells; not shown,noted only in PC3AR
same,cleavage of procaspase-8,"PC3Neo cells; within 2 hr, not shown",induced cleavage of procaspase-8
same,increase in expression of DR5,PC3AR cells; [1],~5 fold
same,increase in expression of DR5 (peak),"PC3AR cells; 400 ng/ml TRAIL, by 16 hr, FIG. 2C",~8 fold
same,DcR2 expression,PC3AR cells; TRAIL treatment,did not significantly alter DcR2 expression
same,DR4 levels,PC3AR cells; TRAIL-treated,increased
same,cleaved caspase-9,"PC3AR cells; by 4 hr, lasted until 16 hr",significant levels of cleaved caspase-9 were detected
same,tBid in mitochondria,"PC3AR cells; mitochondrial fraction, not shown",translocated into mitochondria within 2 hours
same,XIAP levels,PC3AR cells; not shown,did not alter XIAP levels significantly
same,cleaved caspase-3 (p17),PC3AR cells; not shown,present in both cell lines as early as 2 hr
same,expression of NFκB,PC3AR cells; not shown,increased the expression of NFκB levels
same,mature p12 caspase-3 product,PC3AR cells; not shown,noted only in PC3AR
same,tBid expression,PC3AR cells; not shown,detected up to 8 hr of treatment
same,cleavage of procaspase-8,"PC3AR cells; within 2 hr, not shown",induced cleavage of procaspase-8
same,phosphorylated Akt,LNCaP C4-2 cells,slightly decreased phosphorylated Akt
